The values that follow come from patent publication US20100015600A1.

This test addresses CD66c receptor (human (patients' ileal enterocytes)) (UniProt P40199). Put plainly: cell-based or functional assay.
UniProt P40199, sequence (P40199 35-320): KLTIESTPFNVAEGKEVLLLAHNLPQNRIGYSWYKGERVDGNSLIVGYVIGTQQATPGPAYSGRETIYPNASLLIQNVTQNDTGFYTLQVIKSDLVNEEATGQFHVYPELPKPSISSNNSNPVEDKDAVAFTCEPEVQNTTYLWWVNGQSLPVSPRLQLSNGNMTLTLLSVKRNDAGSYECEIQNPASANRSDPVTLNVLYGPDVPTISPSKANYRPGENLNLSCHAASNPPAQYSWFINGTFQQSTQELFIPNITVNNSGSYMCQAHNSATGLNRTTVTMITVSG

“type 1 pili (adhesin FimH) of the E. coli AIEC strain LF82” displayed an Adhesion to the enterocytes, no antibody (adhesion index), patient F (bacteria adhering per enterocyte) of 1.45; an Adhesion to the enterocytes, no antibody (adhesion index), patient G (bacteria adhering per enterocyte) of 1.15; an Adhesion to the enterocytes, no antibody (adhesion index), patient H (bacteria adhering per enterocyte) of 1.02; an Adhesion to the enterocytes, no antibody (adhesion index), patient I (bacteria adhering per enterocyte) of 1.28.
